Results published in IntAct's records for PubMed 11454741.

B1: Stonin-2 (Homo sapiens), Q8WXE9 (parent)
chain: MTTLDHVIATHQSEWVSFNEEPPFPAHSQGGTEEHLPGLSSSPDQSESSSGENHVVDGGSQDHSHSEQDDSSEKMGLISEAASPPGSPEQPPPDLASAISNWVQFEDDTPWASTSPPHQETAETALPLTMPCWTCPSFDSLGRCPLTSESSWTTHSEDTSSPSFGCSYTDLQLINAEEQTSGQASGADSTDNSSSLQEDEEVEMEAISWQASSPAMNGHPAPPVTSARFPSWVTFDDNEVSCPLPPVTSPLKPNTPPSASVIPDVPYNSMGSFKKRDRPKSTLMNFSKVQKLDISSLNRTPSVTEASPWRATNPFLNETLQDVQPSPINPFSAFFEEQERRSQNSSISSTTGKSQRDSLIVIYQDAISFDDSSKTQSHSDAVEKLKQLQIDDPDHFGSATLPDDDPVAWIELDAHPPGSARSQPRDGWPMMLRIPEKKNIMSSRHWGPIFVKLTDTGYLQLYYEQGLEKPFREFKLEICHEISEPRLQNYDENGRIHSLRIDRVTYKEKKKYQPKPAVAHTAEREQVIKLGTTNYDDFLSFIHAVQDRLMDLPVLSMDLSTVGLNYLEEEITVDVRDEFSGIVSKGDNQILQHHVLTRIHILSFLSGLAECRLGLNDILVKGNEIVLRQDIMPTTTTKWIKLHECRFHGCVDEDVFHNSRVILFNPLDACRFELMRFRTVFAEKTLPFTLRTATSVNGAEVEVQSWLRMSTGFSANRDPLTQVPCENVMIRYPVPSEWVKNFRRESVLGEKSLKAKVNRGASFGSTSVSGSEPVMRVTLGTAKYEHAFNSIVWRINRLPDKNSASGHPHCFFCHLELGSDREVPSRFANHVNVEFSMPTTSASKASVRSISVEDKTDVRKWVNYSAHYSYQVALGSIWLMLPTPFVHPTTLPLLFLLAMLTMFAW
B2: Synaptotagmin-1 (Rattus norvegicus (Rat)), P21707 (parent)
chain: MVSASHPEALAAPVTTVATLVPHNATEPASPGEGKEDAFSKLKQKFMNELHKIPLPPWALIAIAIVAVLLVVTCCFCVCKKCLFKKKNKKKGKEKGGKNAINMKDVKDLGKTMKDQALKDDDAETGLTDGEEKEEPKEEEKLGKLQYSLDYDFQNNQLLVGIIQAAELPALDMGGTSDPYVKVFLLPDKKKKFETKVHRKTLNPVFNEQFTFKVPYSELGGKTLVMAVYDFDRFSKHDIIGEFKVPMNTVDFGHVTEEWRDLQSAEKEEQEKLGDICFSLRYVPTAGKLTVVILEAKNLKKMDVGGLSDPYVKIHLMQNGKRLKKKKTTIKKNTLNPYYNESFSFEVPFEQIQKVQVVVTVLDYDKIGKNDAIGKVFVGYNSTGAELRHWSDMLANPRRPIAQWHTLQVEEEVDAMLAVKK
partner: B1 chain

Variants of: B1
Conditions: with syt1_rat Syt1, P21707

effect of a mutation on the interaction | Variant
decreasing interaction | W738A;K740A

Variants of: B2
Conditions: with ston2_human STON2, Q8WXE9

effect of a mutation on the interaction | Variant
decreasing interaction | MVSASHPEALAAPVTTVATLVPHNATEPASPGEGKEDAFSKLKQKFMNELHKIPLPPWALIAIAIVAVLLVVTCCFCVCKKCLFKKKNKKKGKEKGGKNAINMKDVKDLGKTMKDQALKDDDAETGLTDGEEKEEPKEEEKLGKLQYSLDYDFQNNQLLVGIIQAAELPALDMGGTSDPYVKVFLLPDAAKKFETKVHRKTLNPVFNEQFTFKVPYSELGGKTLVMAVYDFDRFSKHDIIGEFKVPMNTVDFGHVTEEWRDLQSAEKEEQEKLGDICFSLRYVPTAGKLTVVILEAKNLKKMDVGGLSDPYVKIHLMQNGKRLKKKKTTIKKNTLNPYYNESFSFEVPFEQIQKVQVVVTVLDYDKIGKNDAIGKVFVGYNSTGAELRHWSDMLANPRRPIAQWHTLQVEEEVDAMLAVKK [K189A;K190A]
